Measured values: US20140087995A1 (published 2014)
Numbered stars: 1 amine (or outer) side, 2 acyl side, 3 side chain; on linkers, the order of the positions; unused ones are H or OH. Bridge positions count the residues as written; N and C are the ends. Square brackets hold non-standard residues; d marks the D form. Side chains are listed from the residue outwards. Ends that are not written are not given here. * marks the point of attachment. C20 diacid = O=C(O)CCCCCCCCCCCCCCCCCCC(=O)*; γGlu = O=C(O)[C@H](CCC(=O)[*:2])N[*:1]

B1: N^ε1-[(4S)-4-carboxy-4-(19-carboxynonadecanoylamino)butanoyl]-[Glu14,Arg17,Pro21,Pro27,Arg34,Glu35]-h-amylin (peptide)
peptide: K([γGlu-C20 diacid])CNTATCATQRLAEFLRHSSPNFGAIPSSTNVGRETY-NH2
modifications: disulfide 2-7; N-terminus assumed
SMILES: CC[C@H](C)[C@H](NC(=O)[C@H](C)NC(=O)CNC(=O)[C@H](Cc1ccccc1)NC(=O)[C@H](CC(N)=O)NC(=O)[C@@H]1CCCN1C(=O)[C@H](CO)NC(=O)[C@H](CO)NC(=O)[C@H](Cc1c[nH]cn1)NC(=O)[C@H](CCCNC(=N)N)NC(=O)[C@H](CC(C)C)NC(=O)[C@H](Cc1ccccc1)NC(=O)[C@H](CCC(=O)O)NC(=O)[C@H](C)NC(=O)[C@H](CC(C)C)NC(=O)[C@H](CCCNC(=N)N)NC(=O)[C@H](CCC(N)=O)NC(=O)[C@@H](NC(=O)[C@H](C)NC(=O)[C@@H]1CSSC[C@H](NC(=O)[C@@H](N)CCCCNC(=O)CC[C@H](NC(=O)CCCCCCCCCCCCCCCCCCC(=O)O)C(=O)O)C(=O)N[C@@H](CC(N)=O)C(=O)N[C@@H]([C@@H](C)O)C(=O)N[C@@H](C)C(=O)N[C@@H]([C@@H](C)O)C(=O)N1)[C@@H](C)O)C(=O)N1CCC[C@H]1C(=O)N[C@@H](CO)C(=O)N[C@@H](CO)C(=O)N[C@H](C(=O)N[C@@H](CC(N)=O)C(=O)N[C@H](C(=O)NCC(=O)N[C@@H](CCCNC(=N)N)C(=O)N[C@@H](CCC(=O)O)C(=O)N[C@H](C(=O)N[C@@H](Cc1ccc(O)cc1)C(N)=O)[C@@H](C)O)C(C)C)[C@@H](C)O
notes: synthetic peptide amide
B2: N^ε1-[(4S)-4-carboxy-4-[[(4S)-4-carboxy-4-(19-carboxynonadecanoylamino)butanoyl]amino]butanoyl]-[D-Asp14,Arg17,Pro21,Pro27,Arg35]-h-amylin (peptide)
peptide: K([γGlu-γGlu-C20 diacid])CNTATCATQRLA[dD]FLRHSSPNFGAIPSSTNVGSRTY-NH2
modifications: disulfide 2-7; N-terminus assumed
SMILES: CC[C@H](C)[C@H](NC(=O)[C@H](C)NC(=O)CNC(=O)[C@H](Cc1ccccc1)NC(=O)[C@H](CC(N)=O)NC(=O)[C@@H]1CCCN1C(=O)[C@H](CO)NC(=O)[C@H](CO)NC(=O)[C@H](Cc1c[nH]cn1)NC(=O)[C@H](CCCNC(=N)N)NC(=O)[C@H](CC(C)C)NC(=O)[C@H](Cc1ccccc1)NC(=O)[C@@H](CC(=O)O)NC(=O)[C@H](C)NC(=O)[C@H](CC(C)C)NC(=O)[C@H](CCCNC(=N)N)NC(=O)[C@H](CCC(N)=O)NC(=O)[C@@H](NC(=O)[C@H](C)NC(=O)[C@@H]1CSSC[C@H](NC(=O)[C@@H](N)CCCCNC(=O)CC[C@H](NC(=O)CC[C@H](NC(=O)CCCCCCCCCCCCCCCCCCC(=O)O)C(=O)O)C(=O)O)C(=O)N[C@@H](CC(N)=O)C(=O)N[C@@H]([C@@H](C)O)C(=O)N[C@@H](C)C(=O)N[C@@H]([C@@H](C)O)C(=O)N1)[C@@H](C)O)C(=O)N1CCC[C@H]1C(=O)N[C@@H](CO)C(=O)N[C@@H](CO)C(=O)N[C@H](C(=O)N[C@@H](CC(N)=O)C(=O)N[C@H](C(=O)NCC(=O)N[C@@H](CO)C(=O)N[C@@H](CCCNC(=N)N)C(=O)N[C@H](C(=O)N[C@@H](Cc1ccc(O)cc1)C(N)=O)[C@@H](C)O)C(C)C)[C@@H](C)O
notes: synthetic peptide amide
B3: N^ε1-[(4S)-4-carboxy-4-(19-carboxynonadecanoylamino)butanoyl]-[Glu14,Arg17,Pro21,Pro27,Pro34,Arg35]-h-amylin (peptide)
peptide: K([γGlu-C20 diacid])CNTATCATQRLAEFLRHSSPNFGAIPSSTNVGPRTY-NH2
modifications: disulfide 2-7; N-terminus assumed
SMILES: CC[C@H](C)[C@H](NC(=O)[C@H](C)NC(=O)CNC(=O)[C@H](Cc1ccccc1)NC(=O)[C@H](CC(N)=O)NC(=O)[C@@H]1CCCN1C(=O)[C@H](CO)NC(=O)[C@H](CO)NC(=O)[C@H](Cc1c[nH]cn1)NC(=O)[C@H](CCCNC(=N)N)NC(=O)[C@H](CC(C)C)NC(=O)[C@H](Cc1ccccc1)NC(=O)[C@H](CCC(=O)O)NC(=O)[C@H](C)NC(=O)[C@H](CC(C)C)NC(=O)[C@H](CCCNC(=N)N)NC(=O)[C@H](CCC(N)=O)NC(=O)[C@@H](NC(=O)[C@H](C)NC(=O)[C@@H]1CSSC[C@H](NC(=O)[C@@H](N)CCCCNC(=O)CC[C@H](NC(=O)CCCCCCCCCCCCCCCCCCC(=O)O)C(=O)O)C(=O)N[C@@H](CC(N)=O)C(=O)N[C@@H]([C@@H](C)O)C(=O)N[C@@H](C)C(=O)N[C@@H]([C@@H](C)O)C(=O)N1)[C@@H](C)O)C(=O)N1CCC[C@H]1C(=O)N[C@@H](CO)C(=O)N[C@@H](CO)C(=O)N[C@H](C(=O)N[C@@H](CC(N)=O)C(=O)N[C@H](C(=O)NCC(=O)N1CCC[C@H]1C(=O)N[C@@H](CCCNC(=N)N)C(=O)N[C@H](C(=O)N[C@@H](Cc1ccc(O)cc1)C(N)=O)[C@@H](C)O)C(C)C)[C@@H](C)O
notes: synthetic peptide amide
B4: N^ε1-[(4S)-4-carboxy-4-[[(4S)-4-carboxy-4-(19-carboxynonadecanoylamino)butanoyl]amino]butanoyl]-[Arg17,Pro21,Pro27,Pro31,Pro34,Arg35]-h-amylin (peptide)
peptide: K([γGlu-γGlu-C20 diacid])CNTATCATQRLANFLRHSSPNFGAIPSSTPVGPRTY-NH2
modifications: disulfide 2-7; N-terminus assumed
SMILES: CC[C@H](C)[C@H](NC(=O)[C@H](C)NC(=O)CNC(=O)[C@H](Cc1ccccc1)NC(=O)[C@H](CC(N)=O)NC(=O)[C@@H]1CCCN1C(=O)[C@H](CO)NC(=O)[C@H](CO)NC(=O)[C@H](Cc1c[nH]cn1)NC(=O)[C@H](CCCNC(=N)N)NC(=O)[C@H](CC(C)C)NC(=O)[C@H](Cc1ccccc1)NC(=O)[C@H](CC(N)=O)NC(=O)[C@H](C)NC(=O)[C@H](CC(C)C)NC(=O)[C@H](CCCNC(=N)N)NC(=O)[C@H](CCC(N)=O)NC(=O)[C@@H](NC(=O)[C@H](C)NC(=O)[C@@H]1CSSC[C@H](NC(=O)[C@@H](N)CCCCNC(=O)CC[C@H](NC(=O)CC[C@H](NC(=O)CCCCCCCCCCCCCCCCCCC(=O)O)C(=O)O)C(=O)O)C(=O)N[C@@H](CC(N)=O)C(=O)N[C@@H]([C@@H](C)O)C(=O)N[C@@H](C)C(=O)N[C@@H]([C@@H](C)O)C(=O)N1)[C@@H](C)O)C(=O)N1CCC[C@H]1C(=O)N[C@@H](CO)C(=O)N[C@@H](CO)C(=O)N[C@H](C(=O)N1CCC[C@H]1C(=O)N[C@H](C(=O)NCC(=O)N1CCC[C@H]1C(=O)N[C@@H](CCCNC(=N)N)C(=O)N[C@H](C(=O)N[C@@H](Cc1ccc(O)cc1)C(N)=O)[C@@H](C)O)C(C)C)[C@@H](C)O
notes: synthetic peptide amide
B5: N^ε1-[(4S)-4-carboxy-4-[[(4S)-4-carboxy-4-(19-carboxynonadecanoylamino)butanoyl]amino]butanoyl]-[Asp14,Arg17,Pro21,Pro27,Pro34,Arg35]-h-amylin (peptide)
peptide: K([γGlu-γGlu-C20 diacid])CNTATCATQRLADFLRHSSPNFGAIPSSTNVGPRTY-NH2
modifications: disulfide 2-7
notes: synthetic peptide amide; also called compound 130
B6: N^ε1-[(4S)-4-carboxy-4-(19-carboxynonadecanoylamino)butanoyl]-[Glu14,Arg17,Pro21,Pro27,His35]-h-amylin (peptide)
peptide: K([γGlu-C20 diacid])CNTATCATQRLAEFLRHSSPNFGAIPSSTNVGSHTY-NH2
modifications: disulfide 2-7; N-terminus assumed
SMILES: CC[C@H](C)[C@H](NC(=O)[C@H](C)NC(=O)CNC(=O)[C@H](Cc1ccccc1)NC(=O)[C@H](CC(N)=O)NC(=O)[C@@H]1CCCN1C(=O)[C@H](CO)NC(=O)[C@H](CO)NC(=O)[C@H](Cc1c[nH]cn1)NC(=O)[C@H](CCCNC(=N)N)NC(=O)[C@H](CC(C)C)NC(=O)[C@H](Cc1ccccc1)NC(=O)[C@H](CCC(=O)O)NC(=O)[C@H](C)NC(=O)[C@H](CC(C)C)NC(=O)[C@H](CCCNC(=N)N)NC(=O)[C@H](CCC(N)=O)NC(=O)[C@@H](NC(=O)[C@H](C)NC(=O)[C@@H]1CSSC[C@H](NC(=O)[C@@H](N)CCCCNC(=O)CC[C@H](NC(=O)CCCCCCCCCCCCCCCCCCC(=O)O)C(=O)O)C(=O)N[C@@H](CC(N)=O)C(=O)N[C@@H]([C@@H](C)O)C(=O)N[C@@H](C)C(=O)N[C@@H]([C@@H](C)O)C(=O)N1)[C@@H](C)O)C(=O)N1CCC[C@H]1C(=O)N[C@@H](CO)C(=O)N[C@@H](CO)C(=O)N[C@H](C(=O)N[C@@H](CC(N)=O)C(=O)N[C@H](C(=O)NCC(=O)N[C@@H](CO)C(=O)N[C@@H](Cc1c[nH]cn1)C(=O)N[C@H](C(=O)N[C@@H](Cc1ccc(O)cc1)C(N)=O)[C@@H](C)O)C(C)C)[C@@H](C)O
notes: synthetic peptide amide
B7: N^ε1-[(4S)-4-carboxy-4-(19-carboxynonadecanoylamino)butanoyl]-[Glu14,Arg17,Pro21,Pro27,His34,Glu35]-h-amylin (peptide)
peptide: K([γGlu-C20 diacid])CNTATCATQRLAEFLRHSSPNFGAIPSSTNVGHETY-NH2
modifications: disulfide 2-7; N-terminus assumed
SMILES: CC[C@H](C)[C@H](NC(=O)[C@H](C)NC(=O)CNC(=O)[C@H](Cc1ccccc1)NC(=O)[C@H](CC(N)=O)NC(=O)[C@@H]1CCCN1C(=O)[C@H](CO)NC(=O)[C@H](CO)NC(=O)[C@H](Cc1c[nH]cn1)NC(=O)[C@H](CCCNC(=N)N)NC(=O)[C@H](CC(C)C)NC(=O)[C@H](Cc1ccccc1)NC(=O)[C@H](CCC(=O)O)NC(=O)[C@H](C)NC(=O)[C@H](CC(C)C)NC(=O)[C@H](CCCNC(=N)N)NC(=O)[C@H](CCC(N)=O)NC(=O)[C@@H](NC(=O)[C@H](C)NC(=O)[C@@H]1CSSC[C@H](NC(=O)[C@@H](N)CCCCNC(=O)CC[C@H](NC(=O)CCCCCCCCCCCCCCCCCCC(=O)O)C(=O)O)C(=O)N[C@@H](CC(N)=O)C(=O)N[C@@H]([C@@H](C)O)C(=O)N[C@@H](C)C(=O)N[C@@H]([C@@H](C)O)C(=O)N1)[C@@H](C)O)C(=O)N1CCC[C@H]1C(=O)N[C@@H](CO)C(=O)N[C@@H](CO)C(=O)N[C@H](C(=O)N[C@@H](CC(N)=O)C(=O)N[C@H](C(=O)NCC(=O)N[C@@H](Cc1c[nH]cn1)C(=O)N[C@@H](CCC(=O)O)C(=O)N[C@H](C(=O)N[C@@H](Cc1ccc(O)cc1)C(N)=O)[C@@H](C)O)C(C)C)[C@@H](C)O
notes: synthetic peptide amide; also called compound 107

target: T1, human calcitonin receptor (human, UniProt P30988 25-474); assay: cell-based or functional assay
T1 sequence (looked up): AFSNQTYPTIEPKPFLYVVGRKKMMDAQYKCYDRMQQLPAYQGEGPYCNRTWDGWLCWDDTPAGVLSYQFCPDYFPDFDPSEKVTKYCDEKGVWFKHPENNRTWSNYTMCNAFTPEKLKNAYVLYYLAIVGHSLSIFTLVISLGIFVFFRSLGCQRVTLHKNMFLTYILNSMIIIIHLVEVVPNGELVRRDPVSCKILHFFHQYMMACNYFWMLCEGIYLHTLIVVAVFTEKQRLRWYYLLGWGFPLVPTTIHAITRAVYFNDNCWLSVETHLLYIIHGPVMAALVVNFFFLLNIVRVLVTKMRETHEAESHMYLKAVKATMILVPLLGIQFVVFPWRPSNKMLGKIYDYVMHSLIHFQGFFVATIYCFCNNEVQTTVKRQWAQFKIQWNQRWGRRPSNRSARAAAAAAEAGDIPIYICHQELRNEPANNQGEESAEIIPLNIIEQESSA

Binder | hCTR funct. EC50 (pM)
B1 | 2740
B2 | 100000
B3 | 6380
B4 | 8660
K([γGlu-γGlu-C20 diacid])CNTATCATQRLADFLRHSSPNFGAIPSSTNVGPETY-NH2 (disulfide 2-7, synthetic peptide amide) | 843
B5 | 7280
B6 | 5580
B7 | 2540
K([γGlu-C20 diacid])CNTATCATQRLAEFLRHSSPNFGAIPSSTNVGPHTY-NH2 (disulfide 2-7, synthetic peptide amide) | 1450
